± gives the standard deviation of the averaged measurements.
Experiment: total protein half-life in vivo (active degradation + dilution); higher = more stable protein
[1] = E. coli NCM3722 delta-clpP, growth: N-lim chemostat, doubling time 6 h
[2] = E. coli NCM3722 delta-hslV, growth: N-lim chemostat, doubling time 6 h
[3] = E. coli NCM3722 delta-lon, growth: N-lim chemostat, doubling time 6 h
[4] = E. coli NCM3722 delta-smpB, growth: N-lim chemostat, doubling time 6 h
[5] = wild type E. coli NCM3722, growth: C-lim chemostat, doubling time 3 h
[6] = wild type E. coli NCM3722, growth: C-lim chemostat, doubling time 6 h
[7] = wild type E. coli NCM3722, growth: N-lim chemostat, doubling time 6 h
[8] = wild type E. coli NCM3722, growth: N-lim chemostat, doubling time 12 h
[9] = wild type E. coli NCM3722, growth: P-lim chemostat, doubling time 12 h
[10] = E. coli NCM3722 delta-clpP delta-lon delta-hslV, growth: N-lim chemostat, doubling time 6 h
[11] = wild type E. coli NCM3722, growth: C-lim chemostat, doubling time 12 h
[12] = wild type E. coli NCM3722, growth: P-lim chemostat, doubling time 6 h

Row | Sequence | total protein half-life in vivo [1] | total protein half-life in vivo [2] | total protein half-life in vivo [3] | total protein half-life in vivo [4] | total protein half-life in vivo [5] | total protein half-life in vivo [6] | total protein half-life in vivo [7] | total protein half-life in vivo [8] | total protein half-life in vivo [9] | total protein half-life in vivo [10] | total protein half-life in vivo [11] | total protein half-life in vivo [12]
1 | MKLVTVIIKPFKLEDVREALSSIGIQGLTVTEVKGFGRQKGHAELYRGAEYSVNFLPKVKIDVAIADDQLDEVIDIVSKAAYTGKIGDGKIFVAELQRVIRIRTGEADEAAL [P0AC55] | 5.2 ± 0.45 h | 5.45 ± 0.14 h | 5.044 ± 0.034 h | 4.83 ± 0.068 h | > 4 h | 7.02 h | 5.43 ± 0.42 h | 8.82 ± 0.72 h | 13.6 ± 2.6 h | – | – | –
2 | MHSTEVQAKPLFSWKALGWALLYFWFFSTLLQAIIYISGYSGTNGIRDSLLFSSLWLIPVFLFPKRIKIIAAVIGVVLWAASLAALCYYVIYGQEFSQSVLFVMFETNTNEASEYLSQYFSLKIVLIALAYTAVAVLLWTRLRPVYIPKPWRYVVSFALLYGLILHPIAMNTFIKNKPFEKTLDNLASRMEPAAPWQFLTGYYQYRQQLNSLTKLLNENNALPPLANFKDESGNEPRTLVLVIGESTQRGRMSLYGYPRETTPELDALHKTDPNLTVFNNVVTSRPYTIEILQQALTFANEKNPDLYLTQPSLMNMMKQAGYKTFWITNQQTMTARNTMLTVFSRQTDKQYYMNQQRTQSAREYDTNVLKPFQEVLNDPAPKKLIIVHLLGTHIKYKYRYPENQGKFDGNTDHVPPGLNAEELESYNDYDNANLYNDHVVASLIKDFKAANPNGFLVYFSDHGEEVYDTPPHKTQGRNEDNPTRHMYTIPFLLWTSEKWQATHPRDFSQDVDRKYSLAELIHTWSDLAGLSYDGYDPTRSVVNPQFKETTRWIGNPYKKNALIDYDTLPYGDQVGNQ [P0CB39] | 7 ± 0.21 h | – | 6.52 ± 1.3 h | 6.49 ± 0.29 h | 3.504 ± 0.028 h | 6.41 ± 0.11 h | 6.03 ± 0.069 h | 13 ± 0.74 h | 13.1 ± 0.49 h | 6.57 ± 0.15 h | 13 ± 0.88 h | 6.4 ± 0.18 h
3 | MAQHTVYFPDAFLTQMREAMPSTLSFDDFLAACQRPLRRSIRVNTLKISVADFLQLTAPYGWTLTPIPWCEEGFWIERDNEDALPLGSTAEHLSGLFYIQEASSMLPVAALFADGNAPQRVMDVAAAPGSKTTQISARMNNEGAILANEFSASRVKVLHANISRCGISNVALTHFDGRVFGAAVPEMFDAILLDAPCSGEGVVRKDPDALKNWSPESNQEIAATQRELIDSAFHALRPGGTLVYSTCTLNQEENEAVCLWLKETYPDAVEFLPLGDLFPGANKALTEEGFLHVFPQIYDCEGFFVARLRKTQAIPALPAPKYKVGNFPFSPVKDREAGQIRQAATGVGLNWDENLRLWQRDKELWLFPVGIEALIGKVRFSRLGIKLAETHNKGYRWQHEAVIALASPDNMNAFELTPQEAEEWYRGRDVYPQAAPVADDVLVTFQHQPIGLAKRIGSRLKNSYPRELVRDGKLFTGNA | 4.53 ± 0.36 h | 4.4 ± 0.12 h | 5.21 ± 0.62 h | 4.38 ± 0.21 h | 2.99 ± 0.3 h | 5.79 ± 1.4 h | 4.63 ± 0.14 h | 8.3 ± 0.63 h | 9.91 ± 0.92 h | 4.91 ± 0.059 h | 9.34 ± 2.6 h | 4.78 ± 1.1 h
4 | MLKSPLFWKMTSLFGAVLLLLIPIMLIRQVIVERADYRSDVEDAIRQSTSGPQKLVGPLIAIPVTELYTVQEEDKTVERKRSFIHFWLPESLMVDGNQNVEERKIGIYTGQVWHSDLTLKADFDVSRLSELNAPNITLGKPFIVISVGDARGIGVVKAPEVNGTALTIEPGTGLEQGGQGVHIPLPEGDWRKQNLKLNMALNLSGTGDLSVVPGGRNSEMTLTSNWPHPSFLGDFLPAKREVSESGFQAHWQSSWFANNLGERFASGNDTGWENFPAFSVAVTTPADQYQLTDRATKYAILLIALTFMAFFVFETLTAQRLHPMQYLLVGLSLVMFYLLLLALSEHTGFTVAWIIASLIGAIMNGIYLQAVLKGWCNSMLFTLALLLLDGVMWGLLNSADSALLLGTSVLVVALAGMMFVTRNIDWYAFSLPKMKASKEVTTDDELRIWK | – | – | – | – | – | – | – | 1.65 h | 5.81 ± 0.98 h | – | – | 3.18 ± 0.29 h
5 | MANNTTGFTRIIKAAGYSWKGLRAAWINEAAFRQEGVAVLLAVVIACWLDVDAITRVLLISSVMLVMIVEILNSAIEAVVDRIGSEYHELSGRAKDMGSAAVLIAIIVAVITWCILLWSHFG [P0ABN1] | 6.7 ± 1.4 h | 5.79 ± 0.99 h | 6.03 ± 0.49 h | 6.13 ± 0.91 h | 3.24 ± 0.045 h | 6.21 ± 0.12 h | 5.93 ± 0.34 h | 13.7 ± 3.1 h | 11.3 ± 0.31 h | 6.58 ± 0.097 h | 13.3 ± 2.6 h | 5.54 ± 0.21 h
6 | MSILTRWLLIPPVNARLIGRYRDYRRHGASAFSATLGCFWMILAWIFIPLEHPRWQRIRAEHKNLYPHINASRPRPLDPVRYLIQTCWLLIGASRKETPKPRRRAFSGLQNIRGRYHQWMNELPERVSHKTQHLDEKKELGHLSAGARRLILGIIVTFSLILALICVTQPFNPLAQFIFLMLLWGVALIVRRMPGRFSALMLIVLSLTVSCRYIWWRYTSTLNWDDPVSLVCGLILLFAETYAWIVLVLGYFQVVWPLNRQPVPLPKDMSLWPSVDIFVPTYNEDLNVVKNTIYASLGIDWPKDKLNIWILDDGGREEFRQFAQNVGVKYIARTTHEHAKAGNINNALKYAKGEFVSIFDCDHVPTRSFLQMTMGWFLKEKQLAMMQTPHHFFSPDPFERNLGRFRKTPNEGTLFYGLVQDGNDMWDATFFCGSCAVIRRKPLDEIGGIAVETVTEDAHTSLRLHRRGYTSAYMRIPQAAGLATESLSAHIGQRIRWARGMVQIFRLDNPLTGKGLKFAQRLCYVNAMFHFLSGIPRLIFLTAPLAFLLLHAYIIYAPALMIALFVLPHMIHASLTNSKIQGKYRHSFWSEIYETVLAWYIAPPTLVALINPHKGKFNVTAKGGLVEEEYVDWVISRPYIFLVLLNLVGVAVGIWRYFYGPPTEMLTVVVSMVWVFYNLIVLGGAVAVSVESKQVRRSHRVEMTMPAAIAREDGHLFSCTVQDFSDGGLGIKINGQAQILEGQKVNLLLKRGQQEYVFPTQVARVMGNEVGLKLMPLTTQQHIDFVQCTFARADTWALWQDSYPEDKPLESLLDILKLGFRGYRHLAEFAPSSVKGIFRVLTSLVSWVVSFIPRRPERSETAQPSDQALAQQ | 3.59 ± 0.068 h | 3.23 ± 0.15 h | – | 3.25 ± 0.049 h | 2.31 ± 0.24 h | 3.01 ± 0.81 h | – | 8.41 h | 6.3 ± 0.43 h | 3.59 h | 4.36 h | 3.59 ± 0.75 h
7 | METKNLTIGERIRYRRKNLKHTQRSLAKALKISHVSVSQWERGDSEPTGKNLFALSKVLQCSPTWILFGDEDKQPTPPVEKPVALSPKELELLELFNALPESEQDTQLAEMRARVKNFNKLFEELLKARQRTNKR | 5.32 ± 0.38 h | 5.9 ± 0.15 h | 6.27 ± 0.067 h | 5.86 ± 0.56 h | 3.21 ± 0.043 h | 5.25 ± 0.77 h | 4.971 ± 0.028 h | 10.2 ± 2.7 h | 10.7 ± 0.66 h | 6.79 ± 1 h | 6.96 ± 1.7 h | 5.33 ± 1 h

Source: the supplement of paper PMC11246515
